One may read the Kd as a measure of binding affinity in units of concentration. A higher Kd goes with lower affinity. The stoichiometry N is a count of units in the complex or per binding partner.

The results in this text go back to article PMC13458718, “HSV-1 origin binding protein UL9 forms intermolecular DNA tethers and intramolecular DNA loops” (Nature Communications, 2026).

The target in data set [1] is T1, UL9 origin-binding protein (Human herpesvirus 1 (HSV-1)) (UniProt P10193).
T1 sequence: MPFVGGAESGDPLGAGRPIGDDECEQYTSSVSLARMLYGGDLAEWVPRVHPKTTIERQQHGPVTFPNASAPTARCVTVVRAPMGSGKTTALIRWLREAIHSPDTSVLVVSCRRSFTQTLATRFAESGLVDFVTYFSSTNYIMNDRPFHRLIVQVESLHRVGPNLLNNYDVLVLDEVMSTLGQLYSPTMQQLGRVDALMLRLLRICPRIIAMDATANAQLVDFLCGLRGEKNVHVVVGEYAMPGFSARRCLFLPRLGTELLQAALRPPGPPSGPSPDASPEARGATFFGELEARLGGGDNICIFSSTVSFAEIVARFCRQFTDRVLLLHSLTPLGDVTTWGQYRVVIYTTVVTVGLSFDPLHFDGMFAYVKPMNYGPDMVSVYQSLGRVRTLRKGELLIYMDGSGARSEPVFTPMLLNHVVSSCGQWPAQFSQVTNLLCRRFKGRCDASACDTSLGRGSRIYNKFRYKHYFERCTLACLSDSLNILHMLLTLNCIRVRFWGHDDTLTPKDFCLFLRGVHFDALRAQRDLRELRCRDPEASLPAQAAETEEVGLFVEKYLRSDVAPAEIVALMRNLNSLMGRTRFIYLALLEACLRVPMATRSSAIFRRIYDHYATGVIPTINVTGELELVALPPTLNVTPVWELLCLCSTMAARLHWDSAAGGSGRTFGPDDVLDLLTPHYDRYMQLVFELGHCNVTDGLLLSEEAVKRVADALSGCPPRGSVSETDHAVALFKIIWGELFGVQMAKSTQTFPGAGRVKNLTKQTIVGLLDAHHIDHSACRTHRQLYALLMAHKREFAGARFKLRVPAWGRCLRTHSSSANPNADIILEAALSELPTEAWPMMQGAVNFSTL
In words: EMSA. Particulars: C6-amino-dT at 5' end of strand 1 and internal (position 10) in strand 2; UL9 buffer: 40 mM Tris-Cl pH 7.5, 50 mM NaCl, 50 mM K-glutamate, 1 mM MgCl2, 0.5 mM DTT, 0.1 mg/ml BSA; EMSA at room temperature, 5 min; TIRF with oxygen …. On the technique in general: In EMSA bound probe runs differently from free probe, usually more slowly.

In data set [2] the target is T2, UL9-atto647N (Human herpesvirus 1 (HSV-1)) (UniProt P10193).
T2 sequence: T1 sequence
The data set is described as follows: single-molecule TIRF/FRET. Particulars: C6-amino-dT at 5' end of strand 1 and internal (position 10) in strand 2; UL9 buffer: 40 mM Tris-Cl pH 7.5, 50 mM NaCl, 50 mM K-glutamate, 1 mM MgCl2, 0.5 mM DTT, 0.1 mg/ml BSA; EMSA at room temperature, 5 min; TIRF with oxygen ….

Data set [3] addresses T3, HSV-1 UL9 (origin-binding protein UL9) (Human alphaherpesvirus 1 strain 17, UniProt P10193).
T3 construct: full ORF from plasmid pCM-UL9, C-terminal 3C-ybbR-TEV-StrepII tag, insect cells (Sf9/High5), StrepTrap and heparin; dimer; tag kept in unlabeled protein, TEV added on atto647N labelling
In words: single-molecule TIRF (ALEX), UL9-atto647N dwell time on oriS DNA. Particulars: 1 mM ATPγS, 20 nM UL9-atto647N, 1 mM MgCl2, pH 7.5; not an affinity constant.

Data set [4] deals with the molecule itself. The data set is described as follows: single-molecule photobleaching steps (prism-TIRF with alternating laser excitation).
The target of data set [5] is UL9 origin-binding protein (Human herpesvirus 1 (HSV-1), UniProt P10193 1-851). In words: single-molecule TIRF DNA capture; trans tethering to immobilized oriS (30.0 ± 6.9% of molecules); 20 nM UL9, no ATP; UL9 buffer: 40 mM Tris-Cl pH 7.5, 50 mM NaCl, 50 mM K-glutamate, 1 mM MgCl2, 0.5 mM DTT, 0.1 mg/ml BSA; EMSA at room temperature, 5 min; TIRF with oxygen scavenger. The settings on record: protein: recombinant; tags: C-terminal 3C-ybbR-TEV-StrepII; chain copies: 2; label: Cy5 on strand 1; strand 1 5' overhang 1 nt (amino-dT).

On to “TCCAGTGCTCGCACTTCGCCCTAATAATATATATATATTGGGACGAAGTGCGAACGCTTCGCGTTCTCACTTC / AAAAAAAAATGAAGTGAGAACGCGAAGCGTTCGCACTTCGTCCCAATATATATATATTATTAGGGCGAAGTGCGAGCACTGG [oriS template AM057/AM071]”, for which, in data set [1], the K half came to 13 nM and the Kd turned out to be 131 nM. In addition, the Kd in data set [2] was found to be 31.9 nM.

For `Nc1ncnc2c1ncn2[C@@H]1O[C@H](COP(=O)(O)OP(=O)(O)OP(O)(O)=S)[C@@H](O)[C@H]1O` [ATPγS], the “τon, avg” value in data set [3] is on record as 4.2 ± 0.1 s.

B1: HSV-1 origin-binding protein UL9 labelled at its C-terminus with atto647N through a ybbR-tag (natural protein)
chain: T1 sequence
modifications: atto647N (CoA-conjugated dye, attached by Sfp transferase) on the C-terminal ybbR tag
notes: also called UL9-atto647N; not shown: ybbR, C-terminal, kept; strepII, C-terminal, cleaved
For B1, the “stoichiometry N” value in data set [4] was 2.

B2: Cy5-oriS capture DNA AM057/AM058 (dsDNA)
DNA 1: TCCAGTGCTCGCACTTCGCCCTAATAATATATATATATTGGGACGAAGTGCGAACGCTTCGCGTTCTCACTTC
DNA 2: GAAGTGAGAACGCGAAGCGTTCGCACTTCGTCCCAATATATATATATTATTAGGGCGAAGTGCGAGCACTGG
modifications: C6-amino-dT at 5' end of strand 1
Consider B2, for which the binding result in data set [5] was “binds”.
